In this data set the test system is CC(=O)SCCNC(=O)CCNC(=O)[C@H](O)C(C)(C)COP(=O)(O)OP(=O)(O)OC[C@H]1O[C@@H](n2cnc3c(N)ncnc32)[C@H](O)[C@@H]1OP(=O)(O)O. As to the kind of experiment: purified protein, by the assay type. Conditions: other: substrate varied, all other reagents saturating, 37° C., pH 7.5.

Chain of recombinant human ACC2 (Homo sapiens; V2141I) (chain, as listed by the source V2141I): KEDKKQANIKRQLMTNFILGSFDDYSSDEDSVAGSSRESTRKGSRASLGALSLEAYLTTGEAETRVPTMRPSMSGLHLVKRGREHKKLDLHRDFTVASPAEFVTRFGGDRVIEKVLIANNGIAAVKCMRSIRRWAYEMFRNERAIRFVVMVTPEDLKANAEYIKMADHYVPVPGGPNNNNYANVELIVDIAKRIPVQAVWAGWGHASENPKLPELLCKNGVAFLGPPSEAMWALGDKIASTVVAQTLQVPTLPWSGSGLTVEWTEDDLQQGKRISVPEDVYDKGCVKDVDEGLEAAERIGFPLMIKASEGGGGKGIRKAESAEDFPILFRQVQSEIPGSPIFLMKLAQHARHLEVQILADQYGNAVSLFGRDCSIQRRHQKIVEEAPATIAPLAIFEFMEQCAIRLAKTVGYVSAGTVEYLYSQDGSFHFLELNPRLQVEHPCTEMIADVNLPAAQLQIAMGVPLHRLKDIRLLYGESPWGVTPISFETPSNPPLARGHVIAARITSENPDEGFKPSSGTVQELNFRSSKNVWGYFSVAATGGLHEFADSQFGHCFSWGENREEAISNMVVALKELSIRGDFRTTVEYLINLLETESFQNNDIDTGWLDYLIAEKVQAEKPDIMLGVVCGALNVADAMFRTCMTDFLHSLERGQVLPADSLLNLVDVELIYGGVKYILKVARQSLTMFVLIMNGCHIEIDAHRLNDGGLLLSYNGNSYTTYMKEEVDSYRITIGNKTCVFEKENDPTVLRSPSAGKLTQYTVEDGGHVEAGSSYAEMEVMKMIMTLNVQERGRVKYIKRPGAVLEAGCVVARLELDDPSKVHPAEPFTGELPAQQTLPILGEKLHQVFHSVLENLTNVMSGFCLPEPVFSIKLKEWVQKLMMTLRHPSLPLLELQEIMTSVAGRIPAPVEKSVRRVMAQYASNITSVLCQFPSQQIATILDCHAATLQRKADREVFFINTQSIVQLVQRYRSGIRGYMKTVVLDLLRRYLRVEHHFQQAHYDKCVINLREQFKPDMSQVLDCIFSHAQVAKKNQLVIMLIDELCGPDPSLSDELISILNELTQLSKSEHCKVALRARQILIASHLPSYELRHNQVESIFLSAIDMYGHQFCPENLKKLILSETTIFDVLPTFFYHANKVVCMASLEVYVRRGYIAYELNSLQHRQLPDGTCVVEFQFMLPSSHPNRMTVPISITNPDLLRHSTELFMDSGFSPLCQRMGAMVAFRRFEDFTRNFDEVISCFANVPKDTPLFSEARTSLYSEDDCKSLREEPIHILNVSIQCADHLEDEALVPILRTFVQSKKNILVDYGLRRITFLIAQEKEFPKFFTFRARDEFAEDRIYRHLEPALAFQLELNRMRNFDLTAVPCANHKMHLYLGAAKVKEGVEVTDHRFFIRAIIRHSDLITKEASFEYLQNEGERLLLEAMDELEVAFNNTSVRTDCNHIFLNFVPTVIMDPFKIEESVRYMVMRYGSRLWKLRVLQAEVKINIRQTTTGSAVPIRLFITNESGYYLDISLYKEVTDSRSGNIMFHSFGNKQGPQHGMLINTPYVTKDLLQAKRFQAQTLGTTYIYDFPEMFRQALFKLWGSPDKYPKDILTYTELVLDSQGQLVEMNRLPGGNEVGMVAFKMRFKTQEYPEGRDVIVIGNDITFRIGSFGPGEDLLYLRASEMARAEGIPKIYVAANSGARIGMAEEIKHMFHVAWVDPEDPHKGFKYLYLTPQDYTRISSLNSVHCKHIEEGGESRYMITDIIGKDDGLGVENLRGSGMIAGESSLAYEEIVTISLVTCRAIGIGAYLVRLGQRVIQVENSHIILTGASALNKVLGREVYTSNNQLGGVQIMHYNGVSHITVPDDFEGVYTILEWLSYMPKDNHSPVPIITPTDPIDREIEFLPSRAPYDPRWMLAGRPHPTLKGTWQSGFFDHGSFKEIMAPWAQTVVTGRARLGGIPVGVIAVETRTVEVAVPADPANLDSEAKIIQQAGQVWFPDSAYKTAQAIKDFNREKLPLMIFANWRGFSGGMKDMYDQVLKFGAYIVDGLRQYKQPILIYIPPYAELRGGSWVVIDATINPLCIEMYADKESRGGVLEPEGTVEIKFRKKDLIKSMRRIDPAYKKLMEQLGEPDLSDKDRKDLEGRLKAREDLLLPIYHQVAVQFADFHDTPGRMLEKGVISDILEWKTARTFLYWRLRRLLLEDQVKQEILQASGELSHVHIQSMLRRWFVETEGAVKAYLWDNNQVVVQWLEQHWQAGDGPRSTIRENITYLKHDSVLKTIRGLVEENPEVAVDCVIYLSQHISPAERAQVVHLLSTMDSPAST

In the case of “recombinant human ACC2 (Homo sapiens; V2141I)”, the Michaelis constant (Km) is 23 µM.
